Measured values from patent US20230203146A1.
Read-outs that look alike come from different tables or passages of the source.

How the values were obtained:
[1] = target: FLAG tagged human Ang2 (Alexis Biochemicals) (human) (UniProt O15123); assay: competition ELISA, FLAG-hAng2 (0.02 nM) on coated hTie2/Fc
[2] = target: FLAG tagged human Ang2 (Alexis Biochemicals) (human) (UniProt O15123); assay: as above; remark: listed apart in the source
[3] = target: FLAG-tagged human Ang2 (human) (UniProt O15123); assay: competition ELISA: FLAG-hAng2 binding to coated hTie2-Fc
[4] = target: FLAG-tagged recombinant human Ang1 (human) (UniProt Q15389); assay: ratio of IC50s in hAng1/hTie2 and hAng2/hTie2 competition ELISA
[5] = target: FLAG tagged human Ang2 (Alexis Biochemicals) (human) (UniProt O15123); assay: AlphaScreen competition, periplasmic extract, FLAG-hAng2 / biotin-hTie2/Fc
[6] = target: FLAG tagged human Ang2 (Alexis Biochemicals) (human) (UniProt O15123); assay: competition ELISA, periplasmic extract, FLAG-hAng2 on hTie2/Fc
[7] = target: FLAG-tagged human Ang2 (human) (UniProt O15123); assay: competition ELISA: FLAG-hAng2 binding to coated hTie2-Fc; remark: listed apart in the source

FLAG-tagged recombinant human Ang1 (human), sequence (Q15389 20-498 limits assumed): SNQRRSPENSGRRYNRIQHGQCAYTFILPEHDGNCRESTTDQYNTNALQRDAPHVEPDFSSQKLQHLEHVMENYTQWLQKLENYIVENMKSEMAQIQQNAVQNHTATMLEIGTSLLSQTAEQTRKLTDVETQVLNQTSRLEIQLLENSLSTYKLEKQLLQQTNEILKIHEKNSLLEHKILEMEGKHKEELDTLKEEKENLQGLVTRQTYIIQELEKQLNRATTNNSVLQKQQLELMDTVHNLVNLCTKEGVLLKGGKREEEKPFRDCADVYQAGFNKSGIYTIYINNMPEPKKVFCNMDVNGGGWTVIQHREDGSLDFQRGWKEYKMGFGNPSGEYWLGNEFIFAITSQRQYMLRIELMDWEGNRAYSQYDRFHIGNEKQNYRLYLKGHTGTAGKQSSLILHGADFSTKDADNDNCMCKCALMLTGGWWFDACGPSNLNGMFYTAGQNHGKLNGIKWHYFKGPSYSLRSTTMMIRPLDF
FLAG tagged human Ang2 (Alexis Biochemicals) (human), sequence (O15123 19-496): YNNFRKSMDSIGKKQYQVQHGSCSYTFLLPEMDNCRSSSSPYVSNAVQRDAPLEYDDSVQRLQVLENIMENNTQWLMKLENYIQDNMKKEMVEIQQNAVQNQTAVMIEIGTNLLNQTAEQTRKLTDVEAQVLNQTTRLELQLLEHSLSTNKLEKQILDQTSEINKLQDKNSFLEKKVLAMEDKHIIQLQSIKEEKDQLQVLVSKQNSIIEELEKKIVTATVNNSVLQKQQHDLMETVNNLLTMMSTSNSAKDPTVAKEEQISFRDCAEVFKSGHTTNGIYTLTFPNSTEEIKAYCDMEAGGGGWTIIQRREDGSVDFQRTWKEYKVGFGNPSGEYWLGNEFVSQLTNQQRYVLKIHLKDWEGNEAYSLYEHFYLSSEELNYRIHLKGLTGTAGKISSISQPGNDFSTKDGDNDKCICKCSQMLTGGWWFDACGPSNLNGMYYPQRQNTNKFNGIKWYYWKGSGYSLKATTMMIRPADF
FLAG-tagged human Ang2 (human), sequence (O15123 19-496): as above

Binder | IC50 [3] | hAng1/hAng2 IC50 ratio [4] | IC50 [7] | other results
VHH 7G08 (VHH, not shown: small tags and cut ends) VHH: EVQLVESGGGLVQPGGSLRLSCAASGFALDYYAIGWFRQVPGKEREGVSCISSSDGITYYVDSVKGRFTISRDNAKNTVYLQMNSLKPEDTAVYYCATDSGGYIDYDCMGLGYDYWGQGTQVTVSS | – | – | – | IC50 [1]: 0.07 nM; IC50 [2]: 0.04 nM
VHH 37A09 (VHH, not shown: small tags and cut ends) VHH: EVQLMESGGGLVQPGGSLRLSCAASGFALDYYAIGWFRQVPGKEREGVSCISSSDGITYYVDSVKGRFTISRDNAKNTVYLQMNSLKPGDTAVYYCATDSGGYIDYDCMGLGYDYWGQGTQVTVSS | – | – | – | IC50 [2]: 0.1 nM
VHH 37F02 (VHH, not shown: small tags and cut ends) VHH: EVQLVESGGGLVQPGGSLRLSCAASGFALDYYAIGWFRQAPGKEREGVSCISSSDGITYYVDSVKGRFTISRDNAKNTVYLQMNSLKPEDTAVYYCATDSGGYIDYDCMGLGYDYWGQGTQVTVSS | 0.077 nM | > 130000 | – | IC50 [2]: 0.08 nM; hAng1/hAng2 ratio [4]: > 130000
VHH 24B05 (VHH, not shown: small tags and cut ends) VHH: EVQLVESGGGLVQPGGSLRLSCAASGFTLDYYAIGWFRQAPGKEWEGVSCISSSDGSTYYADSVKGRFTISRDNAKNTVYLQMNSLKPEDTAVYYCATDSIVCGSYYGMDYWGKGTQVTVSS | – | – | – | IC50 [1]: 1 nM; % inh [5]: 97%; IC50 [2]: 1.1 nM; % inh [6]: 102%
VHH 11B07 (VHH, not shown: small tags and cut ends) VHH: EVQLVESGGGLVQVGDSLRLSCAASGRTFSTYLMVGWFRQAPGKEREFAAGIWSSGDTAYADSVRGRFTISRDNAKNTVYLQMNSLKTEDTAVYYCAGSYDGNYYIPGFYKDWGQGTQVTVSS | – | – | – | IC50 [1]: 5.4 nM; IC50 [2]: 14 nM
VHH 1D01 (VHH, not shown: small tags and cut ends) VHH: EVQLVESGGGLVQAGGSLRLSCAASGFTFDDYALGWFRQAAGKEREGVSCIRCSDGSTYYADSVKGRFTISSDNAKNTVYLQMNSLKPEDTAVYYCAASIVPRSKLEPYEYDAWGQGTQVTVSS | 6.6 nM | – | – | IC50 [1]: 3.4 nM; IC50 [2]: 6.2 nM
VHH 28D10 (VHH, not shown: small tags and cut ends) VHH: EVQLVESGGGLVQAGGSLRLSCAASGFTLDDYAIGWFRQAPGKEREGVSCIRDSDGSTYYADSVKGRFTISSDNDKNTVYLQMNSLKPEDTAVYYCAAVPAGRLRFGEQWYPLYEYDAWGQGTQVTVSS | – | – | 1.8 nM | % inh [5]: 89%; IC50 [2]: 1.3 nM; % inh [6]: 118%; hAng1/hAng2 ratio [4]: > 5680
VHH 00053 (VHH, not shown: small tags and cut ends) VHH: EVQLVESGGGLVQPGGSLRLSCAASGFTLDDYAIGWFRQAPGKEREGVSSIRDNDGSTYYADSVKGRFTISRDNDKNTVYLQMNSLRPEDTAVYYCAAVPAGRLRFGEQWYPLYEYDAWGQGTLVTVSS | – | – | 10.7 nM | –
VHH 00042 (VHH, not shown: small tags and cut ends) VHH: EVQLVESGGGLVQPGGSLRLSCAASGFTLDDYAIGWFRQAPGKEREGVSSIRDNDGSTYYADSVKGRFTISSDNSKNTVYLQMNSLRPEDTAVYYCAAVPAGRLRFGEQWYPLYEYDAWGQGTLVTVSS | 0.646 nM | – | 0.7 nM | –
VHH 00041 (VHH, not shown: small tags and cut ends) VHH: EVQLVESGGGLVQPGGSLRLSCAASGFTLDDYAIGWFRQAPGKEREGVSSIRDNDGSTYYADSVKGRFTISSDNAKNTVYLQMNSLRPEDTAVYYCAAVPAGRLRFGEQWYPLYEYDAWGQGTLVTVSS | – | – | 0.6 nM | –
VHH 00054 (VHH, not shown: small tags and cut ends) VHH: EVQLVESGGGLVQPGGSLRLSCAASGFTLDDYAIGWFRQAPGKEREGVSSIRDNDGSTYYADSVKGRFTISRDNSKNTVYLQMNSLRPEDTAVYYCAAVPAGRLRFGEQWYPLYEYDAWGQGTLVTVSS | – | – | 9.5 nM | –
VHH 00027 (VHH, not shown: small tags and cut ends) VHH: EVQLVESGGGLVQAGGSLRLSCAASGFTLDDYAIGWFRQAPGKEREGVSSIRDNDGSTYYADSVKGRFTISSDNDKNTVYLQMNSLKPEDTAVYYCAAVPAGRLRFGEQWYPLYEYDAWGQGTLVTVSS | 0.672 nM | – | 0.7 nM | –
VHH 00055 (VHH, not shown: small tags and cut ends) VHH: EVQLVESGGGLVQAGGSLRLSCAASGFTLDDYAIGWFRQAPGKEREGVSSIRDNGGSTYYADSVKGRFTISSDNDKNTVYLQMNSLKPEDTAVYYCAAVPAGRLRFGEQWYPLYEYDAWGQGTLVTVSS | – | – | 1.8 nM | –
VHH 00048 (VHH, not shown: small tags and cut ends) VHH: EVQLVESGGGLVQAGGSLRLSCAASGFTLDDYAIGWFRQAPGKEREGVSSIRDSDGSTYYADSVKGRFTISSDNDKNTVYLQMNSLKPEDTAVYYCAAVPAGRLRFGEQWYPLYEYDAWGQGTLVTVSS | – | – | 0.6 nM | –
VHH 00908 (VHH, not shown: small tags and cut ends) VHH: EVQLVESGGGLVQPGGSLRLSCAASGITLDDYAIGWFRQAPGKEREGVSSIRDNGGSTYYADSVKGRFTISSDNSKNTVYLQMNSLRPEDTAVYYCAAVPAGRLRYGEQWYPIYEYDAWGQGTLVTVSS | 0.045 nM | > 192000 | – | –
VHH 00043 (VHH, not shown: small tags and cut ends) VHH: EVQLVESGGGLVQPGGSLRLSCAASGFTLDDYAIGWFRQAPGKEREGVSSIRDNDGSTYYADSVKGRFTISRDNAKNTVYLQMNSLRPEDTAVYYCAAVPAGRLRFGEQWYPLYEYDAWGQGTLVTVSS | – | – | 9.5 nM | –
VHH 00052 (VHH, not shown: small tags and cut ends) VHH: EVQLVESGGGLVQPGGSLRLSCAASGFTLDDYAIGWFRQAPGKEREGVSSIRDNDGSTYYADSVKGRFTISSDNDKNTVYLQMNSLRPEDTAVYYCAAVPAGRLRFGEQWYPLYEYDAWGQGTLVTVSS | – | – | 1 nM | –
VHH 00025 (VHH, not shown: small tags and cut ends) VHH: EVQLVESGGGLVQAGGSLRLSCAASGFTLDDYAIGWFRQAPGKEREGVSTIRDSDGSTYYADSVKGRFTISSDNDKNTVYLQMNSLKPEDTAVYYCAAVPAGRLRFGEQWYPLYEYDAWGQGTLVTVSS | – | – | 2.1 nM | –
VHH 13A02 (VHH, not shown: small tags and cut ends) VHH: EVQLVESGGGLVQAGGSLRLSCAASGGTFSSYSMGWFRQAPGKEREFIAAINWNGDSTYYEDSVKGRFTVSRDNAKNTVYLQMNSLKPEDTAVYYCAATGWGRAYEQAYEYDVWGQGTQVTVSS | – | – | – | IC50 [1]: 4.1 nM; % inh [5]: 91%; IC50 [2]: 23 nM; % inh [6]: 96%

Now from value to binder, other results behind:

IC50 [3] | hAng1/hAng2 IC50 ratio [4] | IC50 [7] | Binder | other results
0.049 nM | > 206000 | – | VHH 00932 (VHH, not shown: small tags and cut ends) VHH: EVQLVESGGGLVQPGGSLRLSCAVSGITLDDYAIGWFRQAPGKEREGVSSIRDNGGSTYYADSVKGRFTISSDNSKNTVYLQMNSLRPEDTAVYYCAAVPAGRLRYGEQWYPIYEYDAWGQGTLVTVSS | –
0.05 nM | > 201000 | – | VHH 00938 (VHH, not shown: small tags and cut ends) VHH: EVQLVESGGGLVQPGGSLRLSCAVSGITLDDYAIGWFRQAPGKEREGVSAIRSSGGSTYYADSVKGRFTISSDNSKNTVYLQMNSLRPEDTAVYYCAAVPAGRLRYGEQWYPIYEYDAWGQGTLVTVSS | –
0.045 nM | > 224000 | – | VHH 00936 (VHH, not shown: small tags and cut ends) VHH: EVQLVESGGGLVQPGGSLRLSCAVSGITLDDYAIGWFRQAPGKEREGVSAIRDNGGSTYYADSVKGRFTISSDNSKNTVYLQMNSLRPEDTAVYYCAAVPAGRLRYGEQWYPIYEYDAWGQGTLVTVSS | –
0.054 nM | > 186000 | – | VHH 00937 (VHH, not shown: small tags and cut ends) VHH: EVQLVESGGGLVQPGGSLRLSCAVSGITLDDYAIGWFRQAPGKEREGVSAIRESGGSTYYADSVKGRFTISSDNSKNTVYLQMNSLRPEDTAVYYCAAVPAGRLRYGEQWYPIYEYDAWGQGTLVTVSS | –
0.068 nM | > 146000 | – | VHH 00935 (VHH, not shown: small tags and cut ends) VHH: EVQLVESGGGLVQPGGSLRLSCAASGITLDDYAIGWFRQAPGKEREGVSAIRSSGGSTYYADSVKGRFTISSDNSKNTVYLQMNSLRPEDTAVYYCAAVPAGRLRYGEQWYPIYEYDAWGQGTLVTVSS | –
1.3 nM | > 7730 | – | VHH 00956 (VHH, not shown: small tags and cut ends) VHH: EVQLVESGGGLVQPGGSLRLSCAASGFTLDDYAIGWFRQAPGKEREGVSAIRSSGGSTYYADSVKGRFTISSDNSKNTVYLQMNSLRPEDTAVYYCAAVPAGRLRFGEQWYPLYEYDAWGQGTLVTVSS | –
0.064 nM | > 157000 | – | VHH 00934 (VHH, not shown: small tags and cut ends) VHH: EVQLVESGGGLVQPGGSLRLSCAASGITLDDYAIGWFRQAPGKEREGVSAIRESGGSTYYADSVKGRFTISSDNSKNTVYLQMNSLRPEDTAVYYCAAVPAGRLRYGEQWYPIYEYDAWGQGTLVTVSS | –
0.056 nM | > 180000 | – | VHH 00933 (VHH, not shown: small tags and cut ends) VHH: EVQLVESGGGLVQPGGSLRLSCAASGITLDDYAIGWFRQAPGKEREGVSAIRDNGGSTYYADSVKGRFTISSDNSKNTVYLQMNSLRPEDTAVYYCAAVPAGRLRYGEQWYPIYEYDAWGQGTLVTVSS | –
0.9 nM | – | – | VHH 00919 (VHH, not shown: small tags and cut ends) VHH: EVQLVESGGGLVQPGGSLRLSCAASGFTLDDYAIGWFRQAPGKEREGVSAIRDNGGSTYYADSVKGRFTISSDNSKNTVYLQMNSLRPEDTAVYYCAAVPAGRLRFGEQWYPLYEYDAWGQGTLVTVSS | hAng1/hAng2 ratio [4]: > 11200
